The values below come from US20110195083A1.

Holding throughout (assay): cell-based or functional assay
For test [1], the target named is HIV-1 6535 envelope protein (Env) on pseudovirus (HIV-1 strain 6535).
In test [2] the target is HIV-1 BX08 envelope protein (Env) on pseudovirus (HIV-1 strain BX08).
Test [3] has as its target HIV-1 BaL envelope protein (Env) on pseudovirus (HIV-1 strain Bal).

A value given as a limit tells only on which side of the number the result lay.

With CD4-mimic peptide CD4M33, in test [1], the neutralization IC50, CD4M33 alone came to 0.721 µg/mL; the neutralization IC50, CD4M33 concentration in combination with serum B714 stood at 0.431 µg/mL; the neutralization IC50, CD4M33 concentration in combination with serum B716 stood at 0.431 µg/mL; the neutralization IC50, CD4M33 concentration in combination with serum B718 was 0.481 µg/mL. In test [1], the neutralization IC50, CD4M33 concentration in combination with serum B720 was 0.189 µg/mL. Moreover, in test [2], the neutralization IC50, CD4M33 alone is 0.173 µg/mL; the neutralization IC50, CD4M33 concentration in combination with serum B714 was 0.036 µg/mL; the neutralization IC50, CD4M33 concentration in combination with serum B716 came out at 0.036 µg/mL; the neutralization IC50, CD4M33 concentration in combination with serum B718 was 0.028 µg/mL. Also, the neutralization IC50, CD4M33 concentration in combination with serum B720 in test [2] is 0.014 µg/mL. Further, in test [3], the neutralization IC50, CD4M33 alone was over 0.25 µg/mL; the neutralization IC50, CD4M33 concentration in combination with serum B714 is 0.048 µg/mL; the neutralization IC50, CD4M33 concentration in combination with serum B716 came out at 0.057 µg/mL; the neutralization IC50, CD4M33 concentration in combination with serum B718 amounted to 0.045 µg/mL. For the same substance, the neutralization IC50, CD4M33 concentration in combination with serum B720 in test [3] was found to be 0.017 µg/mL.
